Test results as given in paper PMC5557676, “Structural Characterization of Acidic M17 Leucine Aminopeptidases from the TriTryps and Evaluation of Their Role in Nutrient Starvation in Trypanosoma brucei” (mSphere, 2017).
Where “and” joins values, the source holds several entries; their conditions need not be identical. Identical values can stand only once.

Key:
[1] = biological target: Trypanosoma brucei acidic M17 leucine aminopeptidase (TbLAP-A) (Trypanosoma brucei (Lister427)); assay: SEC-MALS; SEC-MALLS on Superdex 200 10/300; 10 mM Tris pH 8.0, 200 mM NaCl, 1 mM DTT; 0.1, 0.5, 1.0 and 3.0 mg/ml (TbLAP-A also 5 mg/ml), incubated at least 3 h at room temperature
[2] = biological target: Trypanosoma brucei acidic M17 leucine aminopeptidase (TbLAP-A) (Trypanosoma brucei (Lister427)); assay: as above; remark: listed apart in the source
[3] = biological target: Trypanosoma brucei acidic M17 leucine aminopeptidase (TbLAP-A) (Trypanosoma brucei (Lister427)); assay: crystal structure; crystals grown at 20°C by sitting- and hanging-drop vapor diffusion; apo, holo (Mn2+) and inhibitor-bound forms; homohexamer in the crystal
[4] = biological target: T1, TbLAP-A (Trypanosoma brucei, UniProt Q385B0); assay: X-ray crystal structure; format: binding; details: Mn2+ in both metal sites, active site
T1 construct: gene Tb11.02.4440; full length, E. coli BL21(DE3); N-terminal His6 tag, HRV 3C-cleaved or with a noncleavable His tag; homohexamer; N-terminal domain aa 2-197, C-terminal domain aa 215-521
T1 sequence (Q385B0 1-521): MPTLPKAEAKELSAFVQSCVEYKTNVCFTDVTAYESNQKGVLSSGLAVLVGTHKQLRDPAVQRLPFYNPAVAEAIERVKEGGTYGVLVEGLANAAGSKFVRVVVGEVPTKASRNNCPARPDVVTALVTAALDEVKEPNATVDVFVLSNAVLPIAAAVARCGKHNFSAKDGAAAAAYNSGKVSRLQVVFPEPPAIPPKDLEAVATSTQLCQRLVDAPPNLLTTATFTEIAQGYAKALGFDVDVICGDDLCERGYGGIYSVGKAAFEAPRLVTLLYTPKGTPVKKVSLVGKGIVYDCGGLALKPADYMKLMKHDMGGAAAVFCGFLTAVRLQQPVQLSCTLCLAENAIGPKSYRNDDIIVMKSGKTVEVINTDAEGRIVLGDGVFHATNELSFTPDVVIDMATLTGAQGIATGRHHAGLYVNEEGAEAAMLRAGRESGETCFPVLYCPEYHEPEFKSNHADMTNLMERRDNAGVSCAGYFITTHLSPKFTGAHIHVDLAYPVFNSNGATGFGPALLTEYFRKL

[5] = biological target: T1, TbLAP-A; assay: native gel zymography, AMC fluorescence; format: biochemical; details: 7.5 µM substrate, 50 mM Tris pH 8.0, 100 mM KCl, 1 mM MnCl2, 37 °C, 10 min
[6] = biological target: Leishmania major acidic M17 leucine aminopeptidase (LmLAP-A) (Leishmania major (Friedlin)); assay: SEC-MALS; SEC-MALLS on Superdex 200 10/300; 10 mM Tris pH 8.0, 200 mM NaCl, 1 mM DTT; 0.1, 0.5, 1.0 and 3.0 mg/ml (TbLAP-A also 5 mg/ml), incubated at least 3 h at room temperature
[7] = biological target: Leishmania major acidic M17 leucine aminopeptidase (LmLAP-A) (Leishmania major (Friedlin)); assay: crystal structure; crystals grown at 20°C by sitting- and hanging-drop vapor diffusion; apo, holo (Mn2+) and inhibitor-bound forms; homohexamer in the crystal
[8] = biological target: the molecule itself; assay: SEC-MALS; SEC-MALLS on Superdex 200 10/300; 10 mM Tris pH 8.0, 200 mM NaCl, 1 mM DTT; 0.1, 0.5, 1.0 and 3.0 mg/ml (TbLAP-A also 5 mg/ml), incubated at least 3 h at room temperature
[9] = biological target: the molecule itself; assay: crystal structure; crystals grown at 20°C by sitting- and hanging-drop vapor diffusion; apo, holo (Mn2+) and inhibitor-bound forms; homohexamer in the crystal

“Trypanosoma brucei acidic M17 leucine aminopeptidase (TbLAP-A) (enzyme)” was tested. Which stoichiometry N [1] did it give?
Its stoichiometry N is 6.

And the stoichiometry N [2]?
Its stoichiometry N is 3.

What about the stoichiometry N [3] of the same molecule?
Its stoichiometry N is 6.

Which X-ray crystal structure ([4]; less than full occupancy, six chains) does the source give for `CCCCC[C@H](CC(=O)NO)C(=O)N[C@H](C(=O)N1CCC[C@H]1CO)C(C)C` [actinonin] here?
Its X-ray crystal structure is “The TbLAP-A--actinonin complex had six molecules in the asymmetric unit”.

For `Cc1cc(=O)oc2cc(NC(=O)[C@@H](N)CC(C)C)ccc12` [Leu-AMC], which “native gel zymography, AMC fluorescence” value [5] is on record?
The value was “All three LAP-As were active against Leu-AMC”.

Which stoichiometry N [6] does the source give for “Leishmania major acidic M17 leucine aminopeptidase (LmLAP-A) (enzyme)” here?
The stoichiometry N was 6 and 3.

What about the stoichiometry N [7] of the same molecule?
The stoichiometry N was 6.

For `CC(C)C[C@H](NC(=O)[C@@H](O)[C@H](N)Cc1ccccc1)C(=O)O` [bestatin], which X-ray crystal structure ([4]; bicarbonate bound, 12 chains) is on record?
Its X-ray crystal structure is “TbLAP-A was cocrystallized with the inhibitor bestatin”.

B1: Trypanosoma cruzi acidic M17 leucine aminopeptidase (TcLAP-A) (enzyme)
chain: MNRPPATDSGASEFVRSCVNFKTNVEFTDVDAYKKTHTAGLASTFVVILGTHAQLREDALKELPFYCPAVAEAIQRVKKGETYAVLAEGVKNEANERFVRVLVGEVPSEASRTNCSARPDVVVSLLSAALEEIKGPETKVDVFVCSTAALAIAVAAARSAKRNFTAKEGLAARGYCDNCVRLTVVFPTAPNPSPSELVVVATSTQLCQRLVDAPTNLLNTATFAEVAQSYAKELGCAVDVICGEELRERGYGGIYSVGKCAAEAPRLVTLSYKPKDETRKKVALVGKGIVYDSGGLSLKPTNFMTGMKRDMGGAAAVFCGFLTAVRLQMPIELSCTLCLAENAIGPDAYRNDDILTLKSGKTVEVNNTDAEGRLVLGDGVFHATHEISFKPDVLVDMATLTGAQGIATGHRHAGIFVNDEEEELSFLKAGRVSGETCFPVLYCPEYHVTEFRSPVADMRNSVKQVNNASVSCAGHFVANHLSPDFKGKHIHVDMAFPAFENDKATGFGPALLMEYLRNLR
How did the “stoichiometry N” value [8] turn out when B1 was run?
The value was 3.

And the “stoichiometry N” value [9]?
Its value is 6.
